Data taken from US20150329597A1.

What was measured:
[1] = target: RSV F monomer (uncleaved RSV F Delp23 Furdel; Delp23 Furdel Truncated HIS construct) (respiratory syncytial virus); experiment: analytical HPLC-SEC of F monomer with 1:1 molar D25 Fab; monomer alone ~11.5 min
[2] = target: RSV F monomer (uncleaved RSV F Delp23 Furdel; Delp23 Furdel Truncated HIS construct) (respiratory syncytial virus); experiment: SPR (BIAcore), D25 Fab immobilised on CM5 chip, F monomer as analyte, 1:1 fit
[3] = target: RSV F trimerized-monomer: RSV Monomer (Delp23 Furdel) + HRA peptide (respiratory syncytial virus); experiment: preparatory SEC of the trimerized F fraction with about 10-fold excess D25 Fab; trimerized monomer alone ~1.2 mls
[4] = target: RSV F monomer (uncleaved RSV F Delp23 Furdel; Delp23 Furdel Truncated HIS construct) (respiratory syncytial virus); experiment: preparatory SEC of F monomer with D25 Fab at 1:1 molar ratio; monomer alone ~1.4 mls

## D25 Fab harboring a HIS-tag and Strep-tag
[1]
  Retention Time Wyatt SEC WTC-030S5 (mixture): 10.3 min
[2]
  Kd: 0.053 nM
  koff: 9.9e-06 s⁻¹
  kon: 190000 M⁻¹ s⁻¹
[3]
  Retention Volume Micro-Superdex 200 (mixture): 1.1 mls
[4]
  Retention Volume Micro-Superdex 200 (mixture): 1.3 mls
